This note sets out measurements from patent publication US20210324099A1 (Chugai, published 2021).

Residue numbers refer to the chain shown, from its start.

Test [1] has as its target T1, mPD1-G1CH2 (mouse).
T1 construct: Whole entry named; also called Fc-fused murine PD1
In words: competition ELISA: mPD1-G1CH2 coated on the plate, mPDL1-G1dCH2His (55 nM) as the blocked ligand; 0, 1, 10 and 100 uM ATP (curves overlap).

The target of test [2] is T1, mPD1-G1CH2. Described as above. The source holds these as a separate data set.
The target of test [3] is T2, hCD137(FXa digested) (human, UniProt Q07011 24-186).
T2 construct: also called human CD137 extracellular domain
In words: SPR 37C; ATP 1 uM.

The target of test [4] is T2, hCD137(FXa digested). Put plainly: SPR 37C; ATP 10 uM.
Test [5] concerns the target T2, hCD137(FXa digested). Put plainly: SPR 37C; ATP 100 uM.
For test [6], the target named is T2, hCD137(FXa digested). Put plainly: SPR 37C; no ATP.
Test [7] deals with T3, hIL6R (human, UniProt P08887 20-357).
T3 construct: Purified from culture supernatant of a CHO line; whole entry named; also called human interleukin 6 receptor (purified antigen from hIL6R-CHO supernatant)
T3 sequence: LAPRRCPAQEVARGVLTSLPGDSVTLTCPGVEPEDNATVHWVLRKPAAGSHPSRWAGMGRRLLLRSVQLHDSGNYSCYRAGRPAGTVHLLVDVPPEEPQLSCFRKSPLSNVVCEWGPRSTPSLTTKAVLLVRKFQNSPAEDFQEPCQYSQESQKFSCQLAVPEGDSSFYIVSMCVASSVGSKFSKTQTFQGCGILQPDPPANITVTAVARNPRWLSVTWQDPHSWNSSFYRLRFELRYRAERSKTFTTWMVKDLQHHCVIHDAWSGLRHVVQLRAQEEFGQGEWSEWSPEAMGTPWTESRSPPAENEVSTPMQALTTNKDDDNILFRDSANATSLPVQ
Put plainly: SPR 37C; ADP 10 uM.

Test [8] addresses T3, hIL6R. Put plainly: SPR 37C; ADP 100 uM.
For test [9], the target named is T3, hIL6R. Put plainly: SPR 37C, mean; ATP 10 uM.
Test [10] deals with T3, hIL6R. In words: SPR 37C, mean; ATP 1 uM.
Test [11] concerns the target T3, hIL6R. In words: SPR 37C, mean; ATP 100 uM.
The target of test [12] is T3, hIL6R. Put plainly: SPR 37C; AMP 10 uM.
For test [13], the target named is T3, hIL6R. In words: SPR 37C; AMP 100 uM.
Test [14] concerns the target T3, hIL6R. In words: SPR 37C, mean; ATP 100 uM; ATP 100 uM; mean.
For test [15], the target named is T1, mPD1-G1CH2. Put plainly: competition ELISA: mPD1-G1CH2 coated on the plate, mPDL1-G1dCH2His (55 nM) as the blocked ligand; 1, 10 and 100 uM ATP (curves overlap).
The target in another test is T4, hCD137.1.2-F.G1d (human).
T4 construct: Portion of the human CD137 extracellular region linked to an antibody constant region
Put plainly: ELISA; 500 uM kynurenine, Ab 10 ug/mL.

For a further test, the target named is T5, hCD137.1-F-G1d (human).
T5 construct: Portion of the human CD137 extracellular region linked to an antibody constant region
Put plainly: ELISA; 500 uM kynurenine, Ab 10 ug/mL.

The next test concerns the target T6, hCD137.2.3-F.G1d (human).
T6 construct: Portion of the human CD137 extracellular region linked to an antibody constant region
Put plainly: ELISA; 500 uM kynurenine, Ab 10 ug/mL.

The target in test [16] is T7, Biotinylated Fc-fused monkey CD137 (monkey, biotin on the AviTag).
T7 construct: Monkey CD137 extracellular region, antibody constant region and Avitag; whole entry named; also called cyCD137-Fc-BAP
In words: ELISA; 500 uM kynurenine, Ab 10 ug/mL.

In the next test the target is T8, hCD137.2.4-F.G1d (human).
T8 construct: Portion of the human CD137 extracellular region linked to an antibody constant region
Put plainly: ELISA; 500 uM kynurenine, Ab 10 ug/mL.

A further test concerns the target T9, hCD137.3.4-F.G1d (human).
T9 construct: Portion of the human CD137 extracellular region linked to an antibody constant region
In words: ELISA; 500 uM kynurenine, Ab 10 ug/mL.

B1: mPD1F2VH-mF18/mPD1F2VL-mk1 (antibody, mouse IgG1, kappa, V domains shown)
VH: EVQLVQSGGGVVQPGRSLRLSCAASGFTFSSYWMSWVRQAPGKGLEWVSAISGSGGSTYYADSVKGRFTISRDNSKNTLYLQMNSLRAEDTAVYYCAKENWGSYFDLWGQGTTVTVSS
VL: DIVMTQSPSTLSASVGDRVTITCRASQGISSWLAWYQQKPGRAPKVLIYKASTLESGVPSRFSGSGSGTDFTLTISSLQPEDFATYYCQQSYSTPWTFGQGTKLEIKR
notes: Control anti-PD1 antibody; also called mPD1F2VH-mF18/mPD1F2VL-mkl
Regarding B1, the “IC50 (read off the curve)” value with mPD1-G1CH2 [1] and with mPD1-G1CH2 [2] was approximately 0.6 µg/mL in each case.

B2: 20H4.9-MB110/20H4.9LC-mk0 (antibody, mouse IgG1, kappa)
heavy: QVQLQQWGAGLLKPSETLSLTCAVYGGSFSGYYWSWIRQSPEKGLEWIGEINHGGYVTYNPSLESRVTISVDTSKNQFSLKLSSVTAADTAVYYCARDYGPGNYDWYFDLWGRGTLVTVSSAKTTPPSVYPLAPGSAAQTNSMVTLGCLVKGYFPEPVTVTWNSGSLSSGVHTFPAVLQSDLYTLSSSVTVPSSTWPSETVTCNVAHPASSTKVDKKIVPRDCGCKPCICTVPEVSDVFIFPPKPKDVLTITLTPKVTCVVVDISKDDPEVQFSWFVDDVEVHTAQTQPREEQFNSTFRSVSELPIMHQDWLNGKEFKCRVNSAAFPAPIEKTISKTKGRPKAPQVYTIPPPKEQMAKDKVSLTCMITDFFPEDITVEWQWNGQPAENYKNTQPIMDTDGSYFVYSKLNVQKSNWEAGNTFTCSVLHEGLHNHHTEKSLSHSPGK
light: EIVLTQSPATLSLSPGERATLSCRASQSVSSYLAWYQQKPGQAPRLLIYDASNRATGIPARFSGSGSGTDFTLTISSLEPEDFAVYYCQQRSNWPPALTFGGGTKVEIKRADAAPTVSIFPPSSEQLTSGGASVVCFLNNFYPKDINVKWKIDGSERQNGVLNSWTDQDSKDSTYSMSSTLTLTKDEYERHNSYTCEATHKTSTSPIVKSFNRNEC
notes: also called NS1-MB110
For the molecule B2, the Kd in the test with hCD137(FXa digested) [3] amounted to 56.5 nM; in the test with hCD137(FXa digested) [4], 53.9 nM; in the test with hCD137(FXa digested) [5], 51.9 nM; with hCD137(FXa digested) [6], 61 nM.

B3: 20H4.9-MB492/20H4.9LC-mk0 (antibody, mouse IgG1, kappa)
heavy: B2 heavy with T231E, V232P, P233N, S236E, N322D
light: B2 light
notes: also called NS1-MB492
B3: the Kd in the test with hCD137(FXa digested) [3] is 54.9 nM; with hCD137(FXa digested) [4], 53.5 nM; with hCD137(FXa digested) [5], 50.4 nM; with hCD137(FXa digested) [6] it was 61.6 nM.

B4: 20H4.9-mIgG1/20H4.9LC-mk0 (antibody)
heavy: B2 heavy with D237S
light: B2 light
notes: also called NS1-mIgG1
Turning to B4, the Kd was found to be 56.2 nM with hCD137(FXa digested) [3], 54.4 nM in the test with hCD137(FXa digested) [4], 53.6 nM in the test with hCD137(FXa digested) [5] and 61.7 nM in the test with hCD137(FXa digested) [6].

B5: H0052-G4T1/L1083-lam1 (antibody, human IgG4 S228P, lambda, V domains shown)
VH: EVQLVESGGDLVKPGGGLRLSCAASGFTFSSYTMNWVRQAPGKGLEWVSSISSRSYHIYYADSVDGRFTISRDNAKNSLYLQMNSLRAEDTAVYYCARYGKLYSLNWVFDYWGQGTLVTVSS
VL: QSALTQPPSASGSPGQTVTISCTGTSTDVGDYAYVSWYQQHPGKAPKLMIYYVDKKPSGVPDRFSGSKSGNTASLTVSGLQAEDEADYFCSLRSPGPYPLFGGGTKLTVLG
On to B5, for which the Kd with hIL6R [7] came out at 58.1 nM; in the test with hIL6R [8], 10.1 nM; in the test with hIL6R [9], 50.5 nM; with hIL6R [10] it was 1450 nM; with hIL6R [11] it was 8.31 nM; with hIL6R [12], 6640 nM. In the test with hIL6R [13], this molecule had a Kd of 118 nM.

B6: H0002-G4T1/L1058-lam1 (antibody, human IgG4 S228P, lambda, V domains shown)
VH: B5 VH with I58A, D65K
VL: B5 VL with A33N, Y52E, D54V, P95A
With B6, in the test with hIL6R [14], the affinity, expressed as Kd, was 1160 nM.

B7: H5041-mFa31/L3023-ml0 (antibody, mouse IgG2a, V domains shown)
VH: EVQLVESGGGLVKPGGSLRLSCAASGFTFNTYTMHWVRQAPGKGLEWVSSISSSSKHIYYADSVKGRFTISRDNAKNSLYLQMNSLRAEDTAVYYCARYGRPWELLWVLDYWGQGTLVTVSS
VL: QSALTQPPSASGSPGQTVTISCTGTSTPSGAYDYVSWYQQHPGKAPKLMIYQVSKRPSGVPDRFSGSKSGNTASLTVSGLQAEDEADYFCSTTNSAWDPDFGGGTKLTVLQ
notes: the text of the results names L3021
As to B7, in the test with mPD1-G1CH2 [15], the “IC50 (read off the curve)” value was approximately 0.8 µg/mL.

B8: dBBK026-P253 (antibody, human IgG1, kappa, V domains shown)
VH: QVQLVQSGAEVKKPGSSVKVSCKASGGEFSNYFISWVRQAPGQGLEWMGMVHPIEGWAVYAQKFQGRVTITADESTSTAYMELSSLRSEDTAVYYCARDRPVFCCPRGAFDIWGQGTLVTVSS
VL: DIVMTQSPLSLPVTPGEPASISCRSSQSLVSPGDNTFLSWYLQKPGQSPQLLIYEIERRFYGVPDRFSGSGSGTDFTLKISRVEAEDVGVYYCMQASTFPRTFGQGTKVEIKR
As for B8, the values for the absorbance ratio in the test with hCD137.1.2-F.G1d, in the test with hCD137.1-F-G1d and with hCD137.2.3-F.G1d were 1.2, 1 and 1.1, respectively.

B9: dBBK054-P253 (antibody, human IgG1, kappa, V domains shown)
VH: QVQLVQSGAEVKKPGSSVKVSCKASGGWFSYYMISWVRQAPGQGLEWMGVIVPINGAAQYAQKFQGRVTITADESTSTAYMELSSLRSEDTAVYYCARDRPVWRTPRGAFDIWGQGTLVTVSS
VL: B8 VL with S31D, P32S, G33N, D34M, E57Q, R58H, S97M, T98G
B9: the absorbance ratio is 1.1 in test [16], 1.3 with hCD137.2.4-F.G1d, 1.1 in the test with hCD137.2.3-F.G1d and 1.3 in the test with hCD137.3.4-F.G1d.

B10: dBBK060-P253 (antibody, human IgG1, kappa, V domains shown)
VH: QVQLVQSGAEVKKPGSSVKVSCKASGGDFSNYVISWVRQAPGQGLEWMGFINPIYGAAGYAQKFQGRVTITADESTSTAYMELSSLRSEDTAVYYCARDEPVASLPHGAFDIWGQGTLVTVSS
VL: B8 VL with S31D, G33W, D34G, E57S, R58N, S97K, T98D, Q105P
Take B10: the absorbance ratio with hCD137.1.2-F.G1d turned out to be 1.4; with hCD137.1-F-G1d, 1.2; with hCD137.2.3-F.G1d it was 1.2.

B11: dBBK070-P253 (antibody, human IgG1, kappa, V domains shown)
VH: QVQLVQSGAEVKKPGSSVKVSCKASGGWFSHYSISWVRQAPGQGLEWMGVVWPIRSFATYAQKFQGRVTITADESTSTAYMELSSLRSEDTAVYYCARDNPVTSWPHGAFDIWGQGTLVTVSS
VL: B8 VL with S31R, G33F, D34G, E57S, R58T, S97H, T98Q
For the molecule B11, the absorbance ratio in the test with hCD137.1-F-G1d stood at 1.8; in the test with hCD137.3.4-F.G1d, 1.2.

B12: dBBK101-P253 (antibody, human IgG1, kappa, V domains shown)
VH: QVQLVQSGAEVKKPGSSVKVSCKASGGAFSYYLISWVRQAPGQGLEWMGFVDPIRGGAFYAQKFQGRVTITADESTSTAYMELSSLRSEDTAVYYCARDRPVNAAPRGAFDIWGQGTLVTVSS
VL: B8 VL with S31G, P32D, G33R, D34G, F37Y, E57G, R58S, R59I, S97A, T98E
In the case of B12, the absorbance ratio is 1.2 in the test with hCD137.1.2-F.G1d and 1.3 with hCD137.1-F-G1d.

B13: dBBK102-P253 (antibody, human IgG1, kappa, V domains shown)
VH: B12 VH
VL: B8 VL with S31W, P32N, G33D, D34R, E57R, R58K, S97Q, T98D
For B13, the absorbance ratio with hCD137.1.2-F.G1d came out at 1.2; with hCD137.2.4-F.G1d it was 1.1; with hCD137.1-F-G1d, 1.2; with hCD137.2.3-F.G1d it was 1.1; in the test with hCD137.3.4-F.G1d, 1.1.
